The values that follow come from publication PMC5050020, “The C9ORF72 GGGGCC expansion forms RNA G-quadruplex inclusions and sequesters hnRNP H to disrupt splicing in ALS brains”.

The series addresses T1, hnRNP H1 (recombinant) (UniProt P31943 1-449).
T1 sequence: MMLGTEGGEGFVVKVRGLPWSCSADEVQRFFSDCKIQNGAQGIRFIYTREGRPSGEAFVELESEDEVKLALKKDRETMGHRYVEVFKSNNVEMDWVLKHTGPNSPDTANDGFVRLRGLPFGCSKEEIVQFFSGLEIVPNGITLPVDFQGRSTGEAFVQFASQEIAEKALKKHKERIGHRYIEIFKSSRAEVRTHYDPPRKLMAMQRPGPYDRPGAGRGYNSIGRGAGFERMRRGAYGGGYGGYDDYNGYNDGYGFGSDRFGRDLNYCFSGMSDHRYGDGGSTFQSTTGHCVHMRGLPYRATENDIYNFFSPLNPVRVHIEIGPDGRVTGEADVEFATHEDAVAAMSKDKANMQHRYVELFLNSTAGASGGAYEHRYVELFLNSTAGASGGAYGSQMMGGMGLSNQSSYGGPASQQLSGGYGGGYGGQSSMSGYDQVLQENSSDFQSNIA
The experiment in a line: EMSA; 30 nM tRNA; EMSA: 50 mM Tris pH 8, 50 mM NaCl, 2 mM EDTA, 0.5% BSA, 0.2% CHAPS, 0.3 nM RNA, 30 nM tRNA, 0-640 nM H1, 30 min 37 C, native 6% PAGE. UV crosslinking: ~1 nM RNA in U87 nuclear extract. As to conditions: protein: recombinant, (pRSET-C vector, Ni-NTA), label: 32P.

Turning to GGGGCCGGGGCCGGGGCCGGGGCC (ssRNA, all G replaced by 7-deaza-G (transcribed with 7-deaza-GTP)) [4R-7dG], the Kd (G-quadruplex destabilized) turned out to be 13.5 ± 3 nM.
Turning to GGGGCCGGGGCCGGGGCCGGGGCC (structured_RNA) [4R], where the note is “G-quadruplex, can be intramolecular”, the Kd was determined as 75.5 ± 14 nM.
